For this data set, the target named is GST-p68 fusion polypeptides.

B1: histone acetyltransferase (HAT) region of p300 (protein)
chain: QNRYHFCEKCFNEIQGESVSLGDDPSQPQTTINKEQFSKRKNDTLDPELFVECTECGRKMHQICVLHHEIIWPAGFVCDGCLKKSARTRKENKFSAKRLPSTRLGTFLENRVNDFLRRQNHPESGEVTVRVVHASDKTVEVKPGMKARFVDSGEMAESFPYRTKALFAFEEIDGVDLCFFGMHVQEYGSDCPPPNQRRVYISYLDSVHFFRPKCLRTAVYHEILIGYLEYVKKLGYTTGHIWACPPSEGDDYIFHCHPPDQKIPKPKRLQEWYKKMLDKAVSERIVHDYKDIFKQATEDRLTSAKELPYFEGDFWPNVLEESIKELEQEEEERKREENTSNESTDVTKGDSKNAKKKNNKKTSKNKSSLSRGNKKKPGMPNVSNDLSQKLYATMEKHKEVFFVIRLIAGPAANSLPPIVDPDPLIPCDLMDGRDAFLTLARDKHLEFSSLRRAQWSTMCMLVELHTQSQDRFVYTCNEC
Turning to B1, the “in vitro 14C-acetylation of GST-p68 fusion polypeptides (autoradiogram)” value was “p300 indeed acetylated p68 polypeptides exclusively within its N-terminal 80 amino acids”.
